Target: DS-Cav1 (soluble trimeric RSV prefusion F ectodomain) (respiratory syncytial virus | bacteriophage T4) (UniProt P03420)
Test: native gel or EMSA; native-PAGE and native western blot of the purified soluble RSV F protein

Substance: DS-Cav1 (soluble trimeric RSV prefusion F ectodomain) (from UniProt P03420 26-513)
- stoichiometry N: 3
